Source: US20180353525A1

Target: receptor for activated C kinase (RACK1), endogenous, HT-1080 cells (human) (UniProt P63244)
Test: cell-based or functional assay

Sequence of NHE6^527-588 peptide (pcDNA3-HA/NHE6^527-588) (Q92581 559-620): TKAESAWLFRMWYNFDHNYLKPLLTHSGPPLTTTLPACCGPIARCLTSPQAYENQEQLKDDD

Fold (doxorubicin IC50 at 1% O2 against 21% O2): 1.6 fold
increase in drug sensitivity to Dox in cells exposed to hypoxia: 2.8 fold
Substance: NHE6^527-588 peptide (pcDNA3-HA/NHE6^527-588)
IC50 of doxorubicin, HT-1080 overexpressing the peptide, MTT viability, 1% O2: 224 nM
IC50 of doxorubicin, HT-1080 overexpressing the peptide, MTT viability, 21% O2: 137 nM
